Reference: patent US20180071366A1
Numbered stars: 1 amine (or outer) side, 2 acyl side, 3 side chain; on linkers, the order of the positions; unused ones are H or OH. Bridge positions count the residues as written; N and C are the ends. Square brackets hold non-standard residues; d marks the D form. * marks the point of attachment. C20 diacid = O=C(O)CCCCCCCCCCCCCCCCCCC(=O)*; γGlu = O=C(O)[C@H](CCC(=O)[*:2])N[*:1]; Hyp = O=C(O)[C@@H]1C[C@@H](O)CN1; NMeI = CC[C@H](C)[C@H](NC)C(=O)O; Aad = N[C@@H](CCCC(=O)O)C(=O)O; Sar = CNCC(=O)O

B1: Compound 38 (peptide)
peptide: {C20 diacid-γGlu}-RDGTATKATERLA[Aad]FLQRTTF[Sar]A[NMeI]LSSTEVGSNT[Hyp]-NH2
modifications: lactam 2-7
SMILES: CC[C@H](C)[C@@H](C(=O)N[C@@H](CC(C)C)C(=O)N[C@@H](CO)C(=O)N[C@@H](CO)C(=O)N[C@H](C(=O)N[C@@H](CCC(=O)O)C(=O)N[C@H](C(=O)NCC(=O)N[C@@H](CO)C(=O)N[C@@H](CC(N)=O)C(=O)N[C@H](C(=O)N1C[C@H](O)C[C@H]1C(N)=O)[C@@H](C)O)C(C)C)[C@@H](C)O)N(C)C(=O)[C@H](C)NC(=O)CN(C)C(=O)[C@H](Cc1ccccc1)NC(=O)[C@@H](NC(=O)[C@@H](NC(=O)[C@H](CCCNC(=N)N)NC(=O)[C@H](CCC(N)=O)NC(=O)[C@H](CC(C)C)NC(=O)[C@H](Cc1ccccc1)NC(=O)[C@H](CCCC(=O)O)NC(=O)[C@H](C)NC(=O)[C@H](CC(C)C)NC(=O)[C@H](CCCNC(=N)N)NC(=O)[C@H](CCC(=O)O)NC(=O)[C@@H](NC(=O)[C@H](C)NC(=O)[C@@H]1CCCCNC(=O)C[C@H](NC(=O)[C@H](CCCNC(=N)N)NC(=O)CC[C@H](NC(=O)CCCCCCCCCCCCCCCCCCC(=O)O)C(=O)O)C(=O)NCC(=O)N[C@@H]([C@@H](C)O)C(=O)N[C@@H](C)C(=O)N[C@@H]([C@@H](C)O)C(=O)N1)[C@@H](C)O)[C@@H](C)O)[C@@H](C)O
B2: Compound 40 (peptide)
peptide: {C20 diacid-γGlu}-RDGTATKATQRLA[Aad]FLQRSSF[Sar]A[NMeI]LSSTEVGSNT[Hyp]-NH2
modifications: lactam 2-7
SMILES: CC[C@H](C)[C@@H](C(=O)N[C@@H](CC(C)C)C(=O)N[C@@H](CO)C(=O)N[C@@H](CO)C(=O)N[C@H](C(=O)N[C@@H](CCC(=O)O)C(=O)N[C@H](C(=O)NCC(=O)N[C@@H](CO)C(=O)N[C@@H](CC(N)=O)C(=O)N[C@H](C(=O)N1C[C@H](O)C[C@H]1C(N)=O)[C@@H](C)O)C(C)C)[C@@H](C)O)N(C)C(=O)[C@H](C)NC(=O)CN(C)C(=O)[C@H](Cc1ccccc1)NC(=O)[C@H](CO)NC(=O)[C@H](CO)NC(=O)[C@H](CCCNC(=N)N)NC(=O)[C@H](CCC(N)=O)NC(=O)[C@H](CC(C)C)NC(=O)[C@H](Cc1ccccc1)NC(=O)[C@H](CCCC(=O)O)NC(=O)[C@H](C)NC(=O)[C@H](CC(C)C)NC(=O)[C@H](CCCNC(=N)N)NC(=O)[C@H](CCC(N)=O)NC(=O)[C@@H](NC(=O)[C@H](C)NC(=O)[C@@H]1CCCCNC(=O)C[C@H](NC(=O)[C@H](CCCNC(=N)N)NC(=O)CC[C@H](NC(=O)CCCCCCCCCCCCCCCCCCC(=O)O)C(=O)O)C(=O)NCC(=O)N[C@@H]([C@@H](C)O)C(=O)N[C@@H](C)C(=O)N[C@@H]([C@@H](C)O)C(=O)N1)[C@@H](C)O
B3: Compound 36 (peptide)
peptide: {C20 diacid-γGlu}-RDGTATKATERLA[Aad]FLQRSSF[Sar]A[NMeI]LSSTETGSNT[Hyp]-NH2
modifications: lactam 2-7
SMILES: CC[C@H](C)[C@@H](C(=O)N[C@@H](CC(C)C)C(=O)N[C@@H](CO)C(=O)N[C@@H](CO)C(=O)N[C@H](C(=O)N[C@@H](CCC(=O)O)C(=O)N[C@H](C(=O)NCC(=O)N[C@@H](CO)C(=O)N[C@@H](CC(N)=O)C(=O)N[C@H](C(=O)N1C[C@H](O)C[C@H]1C(N)=O)[C@@H](C)O)[C@@H](C)O)[C@@H](C)O)N(C)C(=O)[C@H](C)NC(=O)CN(C)C(=O)[C@H](Cc1ccccc1)NC(=O)[C@H](CO)NC(=O)[C@H](CO)NC(=O)[C@H](CCCNC(=N)N)NC(=O)[C@H](CCC(N)=O)NC(=O)[C@H](CC(C)C)NC(=O)[C@H](Cc1ccccc1)NC(=O)[C@H](CCCC(=O)O)NC(=O)[C@H](C)NC(=O)[C@H](CC(C)C)NC(=O)[C@H](CCCNC(=N)N)NC(=O)[C@H](CCC(=O)O)NC(=O)[C@@H](NC(=O)[C@H](C)NC(=O)[C@@H]1CCCCNC(=O)C[C@H](NC(=O)[C@H](CCCNC(=N)N)NC(=O)CC[C@H](NC(=O)CCCCCCCCCCCCCCCCCCC(=O)O)C(=O)O)C(=O)NCC(=O)N[C@@H]([C@@H](C)O)C(=O)N[C@@H](C)C(=O)N[C@@H]([C@@H](C)O)C(=O)N1)[C@@H](C)O
B4: Compound 39 (peptide)
peptide: {C20 diacid-γGlu}-KDGTATKATQRLA[Aad]FLQRSSF[Sar]A[NMeI]LSSTEVGSNT[Hyp]-NH2
modifications: lactam 2-7
SMILES: CC[C@H](C)[C@@H](C(=O)N[C@@H](CC(C)C)C(=O)N[C@@H](CO)C(=O)N[C@@H](CO)C(=O)N[C@H](C(=O)N[C@@H](CCC(=O)O)C(=O)N[C@H](C(=O)NCC(=O)N[C@@H](CO)C(=O)N[C@@H](CC(N)=O)C(=O)N[C@H](C(=O)N1C[C@H](O)C[C@H]1C(N)=O)[C@@H](C)O)C(C)C)[C@@H](C)O)N(C)C(=O)[C@H](C)NC(=O)CN(C)C(=O)[C@H](Cc1ccccc1)NC(=O)[C@H](CO)NC(=O)[C@H](CO)NC(=O)[C@H](CCCNC(=N)N)NC(=O)[C@H](CCC(N)=O)NC(=O)[C@H](CC(C)C)NC(=O)[C@H](Cc1ccccc1)NC(=O)[C@H](CCCC(=O)O)NC(=O)[C@H](C)NC(=O)[C@H](CC(C)C)NC(=O)[C@H](CCCNC(=N)N)NC(=O)[C@H](CCC(N)=O)NC(=O)[C@@H](NC(=O)[C@H](C)NC(=O)[C@@H]1CCCCNC(=O)C[C@H](NC(=O)[C@H](CCCCN)NC(=O)CC[C@H](NC(=O)CCCCCCCCCCCCCCCCCCC(=O)O)C(=O)O)C(=O)NCC(=O)N[C@@H]([C@@H](C)O)C(=O)N[C@@H](C)C(=O)N[C@@H]([C@@H](C)O)C(=O)N1)[C@@H](C)O
B5: Compound 42 (peptide)
peptide: {C20 diacid-γGlu}-RDGTATKATQRLADFLQRSSF[Sar]A[NMeI]LSSTETGSNT[Hyp]-NH2
modifications: lactam 2-7
SMILES: CC[C@H](C)[C@@H](C(=O)N[C@@H](CC(C)C)C(=O)N[C@@H](CO)C(=O)N[C@@H](CO)C(=O)N[C@H](C(=O)N[C@@H](CCC(=O)O)C(=O)N[C@H](C(=O)NCC(=O)N[C@@H](CO)C(=O)N[C@@H](CC(N)=O)C(=O)N[C@H](C(=O)N1C[C@H](O)C[C@H]1C(N)=O)[C@@H](C)O)[C@@H](C)O)[C@@H](C)O)N(C)C(=O)[C@H](C)NC(=O)CN(C)C(=O)[C@H](Cc1ccccc1)NC(=O)[C@H](CO)NC(=O)[C@H](CO)NC(=O)[C@H](CCCNC(=N)N)NC(=O)[C@H](CCC(N)=O)NC(=O)[C@H](CC(C)C)NC(=O)[C@H](Cc1ccccc1)NC(=O)[C@H](CC(=O)O)NC(=O)[C@H](C)NC(=O)[C@H](CC(C)C)NC(=O)[C@H](CCCNC(=N)N)NC(=O)[C@H](CCC(N)=O)NC(=O)[C@@H](NC(=O)[C@H](C)NC(=O)[C@@H]1CCCCNC(=O)C[C@H](NC(=O)[C@H](CCCNC(=N)N)NC(=O)CC[C@H](NC(=O)CCCCCCCCCCCCCCCCCCC(=O)O)C(=O)O)C(=O)NCC(=O)N[C@@H]([C@@H](C)O)C(=O)N[C@@H](C)C(=O)N[C@@H]([C@@H](C)O)C(=O)N1)[C@@H](C)O
B6: Compound 37 (peptide)
peptide: {C20 diacid-γGlu}-EDGTATKATERLA[Aad]FLQRSSF[Sar]A[NMeI]LSSTEVGSNT[Hyp]-NH2
modifications: lactam 2-7
SMILES: CC[C@H](C)[C@@H](C(=O)N[C@@H](CC(C)C)C(=O)N[C@@H](CO)C(=O)N[C@@H](CO)C(=O)N[C@H](C(=O)N[C@@H](CCC(=O)O)C(=O)N[C@H](C(=O)NCC(=O)N[C@@H](CO)C(=O)N[C@@H](CC(N)=O)C(=O)N[C@H](C(=O)N1C[C@H](O)C[C@H]1C(N)=O)[C@@H](C)O)C(C)C)[C@@H](C)O)N(C)C(=O)[C@H](C)NC(=O)CN(C)C(=O)[C@H](Cc1ccccc1)NC(=O)[C@H](CO)NC(=O)[C@H](CO)NC(=O)[C@H](CCCNC(=N)N)NC(=O)[C@H](CCC(N)=O)NC(=O)[C@H](CC(C)C)NC(=O)[C@H](Cc1ccccc1)NC(=O)[C@H](CCCC(=O)O)NC(=O)[C@H](C)NC(=O)[C@H](CC(C)C)NC(=O)[C@H](CCCNC(=N)N)NC(=O)[C@H](CCC(=O)O)NC(=O)[C@@H](NC(=O)[C@H](C)NC(=O)[C@@H]1CCCCNC(=O)C[C@H](NC(=O)[C@H](CCC(=O)O)NC(=O)CC[C@H](NC(=O)CCCCCCCCCCCCCCCCCCC(=O)O)C(=O)O)C(=O)NCC(=O)N[C@@H]([C@@H](C)O)C(=O)N[C@@H](C)C(=O)N[C@@H]([C@@H](C)O)C(=O)N1)[C@@H](C)O
B7: Compound 41 (peptide)
peptide: {C20 diacid-γGlu}-RDGTATKATQRLADFLQRSSF[Sar]A[NMeI]LSSTEVGSNT[Hyp]-NH2
modifications: lactam 2-7
SMILES: CC[C@H](C)[C@@H](C(=O)N[C@@H](CC(C)C)C(=O)N[C@@H](CO)C(=O)N[C@@H](CO)C(=O)N[C@H](C(=O)N[C@@H](CCC(=O)O)C(=O)N[C@H](C(=O)NCC(=O)N[C@@H](CO)C(=O)N[C@@H](CC(N)=O)C(=O)N[C@H](C(=O)N1C[C@H](O)C[C@H]1C(N)=O)[C@@H](C)O)C(C)C)[C@@H](C)O)N(C)C(=O)[C@H](C)NC(=O)CN(C)C(=O)[C@H](Cc1ccccc1)NC(=O)[C@H](CO)NC(=O)[C@H](CO)NC(=O)[C@H](CCCNC(=N)N)NC(=O)[C@H](CCC(N)=O)NC(=O)[C@H](CC(C)C)NC(=O)[C@H](Cc1ccccc1)NC(=O)[C@H](CC(=O)O)NC(=O)[C@H](C)NC(=O)[C@H](CC(C)C)NC(=O)[C@H](CCCNC(=N)N)NC(=O)[C@H](CCC(N)=O)NC(=O)[C@@H](NC(=O)[C@H](C)NC(=O)[C@@H]1CCCCNC(=O)C[C@H](NC(=O)[C@H](CCCNC(=N)N)NC(=O)CC[C@H](NC(=O)CCCCCCCCCCCCCCCCCCC(=O)O)C(=O)O)C(=O)NCC(=O)N[C@@H]([C@@H](C)O)C(=O)N[C@@H](C)C(=O)N[C@@H]([C@@H](C)O)C(=O)N1)[C@@H](C)O

target: recombinant human amylin 3 receptor (hAMYR3) (human), P30988; test: cell-based or functional assay
Sequence (P30988 25-474, chain 1 of 2): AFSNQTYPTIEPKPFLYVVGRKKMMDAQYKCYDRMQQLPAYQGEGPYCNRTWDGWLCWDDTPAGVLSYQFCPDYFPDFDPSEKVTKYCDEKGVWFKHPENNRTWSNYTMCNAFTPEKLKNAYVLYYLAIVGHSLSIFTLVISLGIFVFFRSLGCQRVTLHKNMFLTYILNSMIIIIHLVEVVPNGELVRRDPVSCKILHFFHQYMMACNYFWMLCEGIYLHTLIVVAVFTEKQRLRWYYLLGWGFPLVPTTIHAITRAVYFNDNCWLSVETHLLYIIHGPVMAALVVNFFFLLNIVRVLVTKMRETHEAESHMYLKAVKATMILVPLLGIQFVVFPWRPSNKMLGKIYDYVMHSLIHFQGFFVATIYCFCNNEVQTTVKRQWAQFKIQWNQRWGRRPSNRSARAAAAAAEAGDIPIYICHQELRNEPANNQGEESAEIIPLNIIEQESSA
Sequence (O60896 24-148, chain 2 of 2, further chain): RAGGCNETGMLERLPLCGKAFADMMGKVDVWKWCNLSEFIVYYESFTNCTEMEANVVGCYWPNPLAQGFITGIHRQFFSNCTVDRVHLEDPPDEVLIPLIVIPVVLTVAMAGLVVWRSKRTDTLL

Binder | hAMYR3 EC50 [nM] (cAMP formation, 1321N1 cells expressing hAMYR3)
B1 | 0.06 nM
B2 | 0.008 nM
B3 | 0.007 nM
B4 | 0.024 nM
B5 | 0.003 nM
B6 | 0.031 nM
B7 | 0.024 nM

target: recombinant human calcitonin receptor (hCT-R) (human), P30988; test: cell-based or functional assay
Sequence (P30988 25-474): as the sequence (P30988 25-474, chain 1 of 2) above

Binder | hCT-R EC50 [nM] (cAMP formation, 1321N1 cells expressing hCT-R)
B1 | 0.114 nM
B2 | 0.028 nM
B3 | 0.026 nM
B4 | 0.094 nM
B5 | 0.006 nM
B6 | 0.116 nM
B7 | 0.095 nM
